Key:
Experiment in all cases: EMSA
[1] = target: T1, DmTHAP (P element transposase THAP domain) (Drosophila melanogaster, UniProt Q7M3K2 1-77)
T1 sequence: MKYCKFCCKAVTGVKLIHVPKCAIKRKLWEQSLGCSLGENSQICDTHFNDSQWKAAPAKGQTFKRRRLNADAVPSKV

DmTHAP R65A = target: T2, DmTHAP R65A (Drosophila melanogaster, UniProt Q7M3K2 1-77, R65A)
T2 sequence: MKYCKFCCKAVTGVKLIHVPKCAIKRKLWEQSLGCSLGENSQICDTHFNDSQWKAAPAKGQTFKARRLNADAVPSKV

DmTHAP R67A = target: T3, DmTHAP R67A (Drosophila melanogaster, UniProt Q7M3K2 1-77, R67A)
T3 sequence: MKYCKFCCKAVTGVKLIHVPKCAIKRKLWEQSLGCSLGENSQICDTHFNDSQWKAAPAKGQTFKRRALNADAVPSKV

DmTHAP R65A R67A = target: T4, DmTHAP R65A R67A (Drosophila melanogaster, UniProt Q7M3K2 1-77, R65A;R67A)
T4 sequence: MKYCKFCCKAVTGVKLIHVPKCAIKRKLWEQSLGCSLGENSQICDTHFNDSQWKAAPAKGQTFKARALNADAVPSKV

DmTHAP H18A = target: T5, DmTHAP H18A (Drosophila melanogaster, UniProt Q7M3K2 1-77, H18A)
T5 sequence: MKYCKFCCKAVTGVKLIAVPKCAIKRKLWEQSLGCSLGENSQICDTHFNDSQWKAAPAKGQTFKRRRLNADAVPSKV

DmTHAP dY2,K3 = target: T6, DmTHAP dY2,K3 (Drosophila melanogaster, UniProt Q7M3K2 1-77, del2-3)
T6 sequence: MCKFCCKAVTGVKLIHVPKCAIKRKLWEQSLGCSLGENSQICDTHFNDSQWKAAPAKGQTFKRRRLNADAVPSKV

DmTHAP Q42A = target: T7, DmTHAP Q42A (Drosophila melanogaster, UniProt Q7M3K2 1-77, Q42A)
T7 sequence: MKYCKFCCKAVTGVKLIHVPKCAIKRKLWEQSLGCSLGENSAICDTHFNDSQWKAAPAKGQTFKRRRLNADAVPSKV

DmTHAP H18A Q42A = target: T8, DmTHAP H18A Q42A (Drosophila melanogaster, UniProt Q7M3K2 1-77, H18A;Q42A)
T8 sequence: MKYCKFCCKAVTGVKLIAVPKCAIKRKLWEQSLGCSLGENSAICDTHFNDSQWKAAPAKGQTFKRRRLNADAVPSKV

DmTHAP R66A = target: T9, DmTHAP R66A (Drosophila melanogaster, UniProt Q7M3K2 1-77, R66A)
T9 sequence: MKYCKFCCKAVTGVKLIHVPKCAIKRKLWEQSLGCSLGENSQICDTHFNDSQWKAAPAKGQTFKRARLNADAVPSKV

B1: 15mer duplex with transposase site (dsDNA)
DNA 1: GAGGTTAAGTGGATGT
DNA 2: TACATCCACTTAAC
For B1, the binding signal [1] was 1 fold reduction in affinity vs WT (reference), the binding signal (DmTHAP R65A) was ~21 fold reduction in affinity vs WT and the binding signal (DmTHAP R67A) was ~17 fold reduction in affinity vs WT. For the same binder, the binding signal (DmTHAP R65A R67A) was ~42 fold reduction in affinity vs WT, the binding signal (DmTHAP H18A) was ~12 fold reduction in affinity vs WT and the binding signal (DmTHAP dY2,K3) was ~3 fold reduction in affinity vs WT. The binding signal (DmTHAP Q42A) was ~15 fold reduction in affinity vs WT, the binding signal (DmTHAP H18A Q42A) was ~20 fold reduction in affinity vs WT and the binding result (DmTHAP R66A) was “no binding”.

Source: publication PMC2933787
